We go through 1 protein from publication PMC2843198 (The Journal of Biological Chemistry, 2010).

This data set concerns the molecule itself. The data set is described as follows: SEC. (Size exclusion chromatography separates by hydrodynamic size, large species first.)

B1: TAP-tagged Fun30 (Function unknown now 30) (enzyme, S. cerevisiae, UniProt P31380 1-1131, looked up)
chain: MSGSHSNDEDDVVQVPETSSPTKVASSSPLKPTSPTVPDASVASLRSRFTFKPSDPSEGAHTSKPLPSGSPEVALVNLAREFPDFSQTLVQAVFKSNSFNLQSARERLTRLRQQRQNWTWNKNASPKKSETPPPVKKSLPLANTGRLSSIHGNINNKSSKITVAKQKTSIFDRYSNVINQKQYTFELPTNLNIDSEALSKLPVNYNKKRRLVRADQHPIGKSYESSATQLGSAREKLLANRKYGRHANDNDEEEEESMMTDDDDASGDDYTESTPQINLDEQVLQFINDSDIVDLSDLSDTTMHKAQLIASHRPYSSLNAFVNTNFNDKDTEENASNKRKRRAAASANESERLLDKITQSIRGYNAIESVIKKCSSYGDLVTSQMKKWGVQVEGDNSELDLMNLGEDDDDDNDDGNNDNNNSNNNNTAGADATSKEKEDTKAVVEGFDETSAEPTPAPAPAPVERETKRIRNTTKPKVVEDEDDDVDLEAIDDELPQSEHEDDDYEEEDEDYNDEEEDVEYDDGDDDDDDDDEFVATRKNTHVISTTSRNGRKPIVKFFKGKPRLLSPEISLKDYQQTGINWLNLLYQNKMSCILADDMGLGKTCQVISFFAYLKQINEPGPHLVVVPSSTLENWLREFQKFAPALKIEPYYGSLQEREELRDILERNAGKYDVIVTTYNLAAGNKYDVSFLKNRNFNVVVYDEGHMLKNSTSERFAKLMKIRANFRLLLTGTPLQNNLKELMSLLEFIMPNLFISKKESFDAIFKQRAKTTDDNKNHNPLLAQEAITRAKTMMKPFILRRRKDQVLKHLPPKHTHIQYCELNAIQKKIYDKEIQIVLEHKRMIKDGELPKDAKEKSKLQSSSSKNLIMALRKASLHPLLFRNIYNDKIITKMSDAILDEPAYAENGNKEYIKEDMSYMTDFELHKLCCNFPNTLSKYQLHNDEWMQSGKIDALKKLLKTIIVDKQEKVLIFSLFTQVLDILEMVLSTLDYKFLRLDGSTQVNDRQLLIDKFYEDKDIPIFILSTKAGGFGINLVCANNVIIFDQSFNPHDDRQAADRAHRVGQTKEVNITTLITKDSIEEKIHQLAKNKLALDSYISEDKKSQDVLESKVSDMLEDIIYDENSKPKGTKE
The stoichiometry N is the number of molecules, sites or subunits per partner or assembly. As for B1, the “stoichiometry N” value came out at 2.
